Measurements taken from US20230036503A1, “Fusion Protein, Amino Acid Sequence Thereof, Coding Nucleotide Sequence Thereof, Preparation Method Thereof and Use Thereof” (priority 2019, published 2023).
“Also recorded” adds a separate entry of the source.

Experiments:
[1] = system: callose accumulation of Arabidopsis; test: Intensity of immune responses of various fusion proteins: callose fluorescence in Arabidopsis leaves quantified by ImageJ; format: in vivo; details: 100 nmol final concentration
Description: Computation was conducted through image processing software ImageJ according to obtained callose accumulation fluorescence images, and the immune activation ability of the fusion proteins to the plants was quantified by virtue of the fluorescence intensity. Computing methods were as follows:
Measured IntDen=Integrated Density=Integrated Optical Density;
Measured Area=Image Area;
MD(mean optical density)=IntDen/Area.

[2] = system: callose accumulation of Arabidopsis; test: Callose accumulation in Arabidopsis leaves infiltrated with fusion protein or PAMP polypeptide (aniline blue staining); format: in vivo
Description: In immune responses of plant cells, callose might accumulate. The callose might enhance the mechanical strength of plant cell walls and block channels through which pathogens spread between the cells, thereby limiting invasion of pathogenic microorganisms. With a model plant Arabidopsis as a material and callose accumulation as immune index, the immune activation abilities of different concentrations of fusion proteins His-MP7 were analyzed and were compared to that of a single PAMP polypeptide. A specific experimental operation was as follows:
Final concentrations of the fusion protein His-MP7 and a polypeptide flg22 were adjusted to be 1 μM, 100 nM and 10 nM respectively, with water being served as a control. Four-week old Arabidopsis leaves were infiltrated with an injection syringe permeation method for 12 h, the treated leaves were collected and put in a 6-well plate, and a suitable amount of washing buffer was added for 4 h incubation. The washing buffer was substituted by an aniline blue staining solution with a final concentration of 0.1 mg/mL for staining at a room temperature in the dark for 1 h, and the callose accumulation was observed using a 10 times objective lens of a fluorescence microscope. Each treatment contained three biological replicates with three repeated experiments.
A final concentration of the fusion protein His-MP7 and each of polypeptides flg22, nlp20, elf18, pip1, pep1, csp22 and flgII-28 was adjusted to be 100 nM, with csp22 and flgII-28 being served as negative controls. The four-week old Arabidopsis leaves were infiltrated with an injection syringe permeation method; and a sample treatment method was the same as mentioned above.

[3] = system: oxidative burst immune response in corn leaves; test: Reactive oxygen species / oxidative burst in corn leaves (DAB staining); format: in vivo; details: 100 nM, corn leaves soaked 48 h, FIG. 4
Description: Oxidative burst was considered as one of earliest responses of plants to pathogenic microorganisms and played an important role in defense responses of the plants. […] After the plants were infected by the pathogenic microorganisms, the reactive oxygen species could be produced and accumulate, and oxidative burst could be caused. With plant corns as a material and the reactive oxygen species as an immune index, the immune activation ability of 100 nM fusion protein His-MP7 was analyzed. A specific experimental operation was as follows:
Two-week old corn leaves were taken, the intermediate portion of each leaf was taken, shorn with a length of 5 cm and immersed into 1 μg/mL auxin 6BA solution. It was added with the fusion protein His-MP7 with a final concentration of 100 nM, with an aqueous solution of auxin 6BA being served as a blank control. The intermediate portions were soaked for 48 h, stained for 12 h using 1 mg/mL DAB solution, eluted for 12 h by a washing buffer (ethyl alcohol:acetic acid:glycerin=3:1:1) and observed after being placed for 30 min.

[4] = system: Magaporthe grisea; format: in vivo; details: rice leaves, 100 nM
[5] = system: Pseudomonas syringae DC3000; test: Resistance of Arabidopsis to DC3000 pathogenic bacteria (colony growth in injected leaves)
Description: (1) A strain DC3000 of Pseudomonas syringae was inoculated to 20 mL of SOC+str (streptomycin) liquid medium for overnight culture for 14-16 h at 28° C., OD600 was determined, and a product was subjected to gradient dilution until OD600 was 0.00005 to obtain a bacterial solution.
(2) The fusion protein His-MP7 was added in the bacterial solution until a final concentration was 100 nM, and a bacterial solution, to which water was added, was served as a control. Meanwhile, four-week old healthy Arabidopsis leaves were injected with the bacterial solution and were sampled at Day 0 (four leaves from one plant) and Day 3 (five plants, two leaves from each plant) respectively. Each leaf was punched by a puncher. The punched small discs were taken; 500 μL of 10 mM MgCl2 was added at Day 0; the small discs were ground in a 1.5 mL EP tube; and 50 μL of each of four samples in the same treatment was spotted on one SOC+str (streptomycin) solid plate (the plate required to be blow-dried, and then the shape of each spotted sample could be kept) and cultured for 16-24 h at 28° C. Samples were photographed and observed for statistics of colony growth.
(3) At Day 3, the two leaves on each plant of the five plants were punched to take small discs similarly; 250 μL of 10 mM MgCl2 was added; and the small discs were ground in the 1.5 mL EP tube and diluted by MgCl2 stepwise until 1×10^−5.

[6] = system: Tobacco mosaic virus (TMV); test: Resistance of tobacco plants to Tobacco mosaic virus (disease grading, disease index, control effect)
Description: The experiment was divided into an experimental group and a control group (with 20 lines of tobacco plants in each group). After the experimental group was injected with a recombinant protein, viruses were inoculated to the experimental group; and after the control group was injected with the sterile water, the viruses were inoculated to the control group. It was inoculated through the following steps:
(1) Fresh leaves infected with TMV were added to a small amount of sterilized phosphate buffer (1:200) and were ground in a mortar and filtered with sterilized gauze to remove the residues of the infected leaves. The above fresh juice was prepared as an inoculum and a concentration of the inoculum of the TMV was adjusted to obtain an aqueous solution of TMV.
(2) When tobacco seedlings were in the 4-5 true leaves period, fully expanded true leaves were selected; a suitable amount of quartz sands were uniformly scattered on the leaf surfaces; and the leaf surfaces were slightly rubbed by an absorbent ball dipped with the aqueous solution of TMV for 1-2 times and then immediately washed with water.
(3) After inoculation for 21 days, the morbidity of tobacco plants was observed. With each plant as a unit for assessment, the grading standard was as follows:
Grade 0: freedom from disease
Grade 3: newborn leaf had yellow-green stripes parallel to the leaf vein with slightly curling;
Grade 7: plant was dwarfed, leaf had yellowish-white strips with curling, and newborn leaves were twisted and prolapsed and could not be normally expanded; and
Grade 9: plant was dwarfed seriously and subjected to chlorina or died.
A disease index and the control effect were computed with the following methods:
Disease index=[Σ(number of infected plants in various grades×relative grade value)/(total number of plants investigated×9)]×100;
Control effect (%)=[(control disease index-treatment disease index)/control disease index]×100.

[7] = 21 days after TMV inoculation, 20 plants per group

Molecule	MD (mean optical density = IntDen/Area) of callose fluorescence ([1]; H2O 0.002-0.003)	Immune activation ([1]; H2O: No)	intensity of callose accumulation compared with flg22 ([2]; 100 nM His-MP7 versus 1 μM flg22, FIG. 2)	callose accumulation of Arabidopsis ([2]; 100 nM, leaf infiltration 12 h, FIG. 2)	immune activity effect compared with single PAMP polypeptides (callose accumulation) ([2]; all at 100 nM, flg22, nlp20, elf18, pip1, pep1, csp22, flgII-28, FIG. 3)	induction of oxidative burst immune response [3]	scab area percentage ([4]; 3-4 days, untreated 11.6%) [%]	infection rate of Magaporthe grisea lowered by ([4]; versus untreated) [%]	bacterium growth index ([5]; 100 nM in bacterial solution, Arabidopsis leaves, FIG. 5, control 5.38)	reduction of growth amount of Pseudomonas syringae DC3000 ([5]; 100 nM, versus water control)	Number of Infect Tobacco Plants, 0 grade [6, 7] [plant]	Number of Infect Tobacco Plants, 1 grade [6, 7] [plant]	Number of Infect Tobacco Plants, 3 grade [6, 7] [plant]	Number of Infect Tobacco Plants, 5 grade [6, 7] [plant]	Number of Infect Tobacco Plants, 7 grade [6, 7] [plant]	Number of Infect Tobacco Plants, 9 grade [6, 7] [plant]	Control effect ([6]; tobacco, TMV, 21 days, versus H2O control) [%]	Disease index ([6]; tobacco, TMV, 21 days, H2O control 78.9)
TP10	0.378	Yes																
His-MP7: heptapeptide fusion protein, SEQ ID NO: 15: elf18, csp22, flg22, flgII-28, nlp20, pep1, pip1 in sequence, linkers GAG and AGA, HIS tag (protein, his-MP7) MGSSHHHHHHSSGLVPRGSHMASMTGGQQMGRDPNSSSVDKLSKEKFERTKPHVNVGTIGGAGAVGTVKWFNAEKGFGFITPDDGAGAQRLSTGSRINSAKDDAAGLQIAGAGESTNILQRMRELAVQSRNDSNSATDREAGAGAIMYSWYFPKDSPVTGLGHRAGAATKVKAKQRGKEKVSSGRPGQHNAGARLASGPSPRGRGH			equivalent to that induced by 1 μM PAMP polypeptide flg22	obviously induced	superior to those of all the PAMP polypeptides; also recorded: superior to that of a single PAMP polypeptide	could induce the oxidative burst immune response	1.9	83.6	4.05	≥ 10	1	11	6	2	0	0	72.5	21.7
